Laboratory results as given in patent publication EP2974737A1 (Ablynx N.V., dated 2016).
Where a chain is given by its changes, count along the chain named.

B1: SEQ ID NO: 85 (VHH)
VHH: EVQLVESGGGSVQPGGSLRLSCAASRSIGRLDRMGWYRHRPGEPRELVATITGGSSINYGDSVKGRFTISIDNSKNTVYLQMNSLRPEDTAVYYCNFNKYVTSRDTWGQGTLVQVGG
B2: SEQ ID NO: 86 (VHH)
VHH: B1 VHH with G116S, G117S
B3: SEQ ID NO: 87 (VHH)
VHH: B1 VHH with Q114T
B4: SEQ ID NO: 89 (VHH)
VHH: B1 VHH with P14A
B5: SEQ ID NO: 88 (VHH)
VHH: B1 VHH with G116S, G117S

Each binder was assayed against T1, purified interference factor(s) from Donor A (human) (assay: SPR, interference factor immobilized; % of Fig. 9 reference).
T1 construct: also called interference in serum from Donor A

First: B1
Second: B2
The “interference binding, % of Reference Sequence” value (“interference binding, %” below) of the first is lower: 46% for the first, 76% for the second.

Going from B3 to B4, the “interference binding, %” value falls from 51% to 14%.

For B5, the “interference binding, %” value was 1%.

The binders below were run against T2, purified interference factor(s) from Donor B (human) in the same assay as above.
T2 construct: the text names the donors 8, 19 and 30; also called interference in serum from Donor B

Going from B1 to B2, the “interference binding, %” value rises from 5% to 6%.

B3 and B4 are the same in “interference binding, %” value: 5% for the first, 5% for the second.

B5 was tested, and the “interference binding, %” value was 5%.

These binders were tested against T3, purified interference factor(s) from Donor C (human) in the same assay as above.
T3 construct: the text names the donors 8, 19 and 30; also called interference in serum from Donor C

First: B1
Second: B2
The “interference binding, %” value of the first is lower: 42% for the first, 86% for the second.

Compared with B3, B4 is lower in “interference binding, %” value: 39% for the first, 17% for the second.

B5 was tested, and the “interference binding, %” value was 11%.
